In paper PMC3778281 one finds stoichiometry N data, which are given here for one substance.

The target in this assay is F8–TNF (murine). Kind of assay: SEC. In general terms: Size exclusion chromatography separates by hydrodynamic size, large species first.

The term stoichiometry N denotes a count of units in the complex or per binding partner. For the substance F8–TNF, the stoichiometry N came to 3.
